For this assay, the target named is PKA catalytic subunit (Mus musculus, UniProt P05132). Kind of assay: SPR. Background: SPR reads the build-up and loss of mass on a sensor chip optically.

B1: RIIβ 102-265 (protein)
chain: PVINRFTRRASVCAEAYNPDEEEDDAESRIIHPKTDDQRNRLQEACKDILLFKNLDPEQMSQVLDAMFEKLVKEGEHVIDQGDDGDNFYVIDRGTFDIYVKCDGVGRCVGNYDNRGSFGELALMYNTPRAATITATSPGALWGLDRVTFRRIIVKNNAKKRKMY
The Kd is the free concentration of one partner at which half of the binding sites on the other are occupied at equilibrium, for simple one-to-one binding. A low value points to higher affinity. B1: binding was characterised by a dissociation constant (Kd) of 0.6 nM.

B2: RIIβ 108-268 (protein)
chain: TRRASVCAEAYNPDEEEDDAESRIIHPKTDDQRNRLQEACKDILLFKNLDPEQMSQVLDAMFEKLVKEGEHVIDQGDDGDNFYVIDRGTFDIYVKCDGVGRCVGNYDNRGSFGELALMYNTPRAATITATSPGALWGLDRVTFRRIIVKNNAKKRKMYESF
B2 showed a dissociation constant Kd of 11.3 nM.
